Drawing on the supplement of paper PMC10567573, this text covers protein stability index for 84 variants.

The labels stand for the following.
B1: ZNF649 (parent)
chain: EHERAHRGEKPHGCSLCGKAFYKR
B2: KCNA3 (parent)
chain: GERVVINISGLRFETQLKTLCQFP
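Also: lentivirally expressed fusions sorted by FACS into six bins by GFP to DsRed ratio, PSI derived from sequencing read proportions per bin multiplied by bin number.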

The first data set covers variants of B1. Put plainly: protein stability index of a GFP-peptide fusion (GPS, HEK-293T) (PSI 1-6); higher = more stable. The following applies: c terminus: a fixed tail appended.
Take E9M: the protein stability index was determined as 2.08. Still for that read-out and setting: for E9C the value was 3.6; for E9L, 2.16; for E9I, 1.86.

Regarding E9H, the protein stability index was determined as 2.13.

In the case of K23C, the protein stability index turned out to be 2.64.

In the case of K23Q, the protein stability index came out at 2.24. As for K23R, the protein stability index came out at 3.06.

On to K23V, for which the protein stability index amounted to 1.95. As for F21M, the protein stability index was 2.37. As to F21Y, the protein stability index stood at 2.95. On to Y22M, for which the protein stability index was 2.69. Regarding Y22F, the protein stability index stood at 2.95.

In the case of Y22A, the protein stability index came out at 2.22. As for Y22N, the protein stability index was 2.35. As to Y22I, the protein stability index amounted to 1.93.

As to S15N, the protein stability index came to 2.39. For S15E, the protein stability index is 2.21. Consider S15R, for which the protein stability index was determined as 2.23.

As to S15D, the protein stability index is 3.14. A20Y: the protein stability index is 1.75. Consider A20T, for which the protein stability index is 2.17.

On to A20R, for which the protein stability index was found to be 2.78. In the case of A20F, the protein stability index is 2.57. The same measure, in the same setting: for A20H the value was 3.2. For H12I, the protein stability index came to 4.08. With H12M, the protein stability index stood at 3.47.

As for H12W, the protein stability index turned out to be 1.64. With H12Q, the protein stability index came to 2.18. As to H12C, the protein stability index stood at 1.46. The same measure, in the same setting: for A5K the value was 1.74. With A5D, the protein stability index worked out at 1.88. On the same count and under the same terms, for A5N the value was 2.18.

As to A5W, the protein stability index was 1.62. For A5R, the protein stability index is 2.76. In the case of A5F, the protein stability index turned out to be 2.8. Consider A5S, for which the protein stability index came to 1.09. As for A5H, the protein stability index came out at 2.23. For H6Q, the protein stability index was found to be 1.31.

Consider H6E, for which the protein stability index came to 1.06. With H6M, the protein stability index was found to be 2.27. Turning to H6F, the protein stability index was 2.04. The same measure, in the same setting: as for R4G, the figure is 2.55; as for R4Q, 1.59; as for R4H, 2.05. Consider R4P, for which the protein stability index is 2.6. In the case of R4T, the protein stability index was determined as 1.95. With R4E, the protein stability index came out at 2.14. For the variant R24P, the protein stability index was determined as 3.

Take R24V: the protein stability index came to 2.05.

In the case of R24F, the protein stability index stood at 2.65. In the case of R24I, the protein stability index was determined as 2.81. On the same count and under the same terms, as for R24D, the figure is 3.35.

For R24S, the protein stability index was 4.19. The same measure, in the same setting: as for E1R, the figure is 1.7; as for E1M, 1.88; as for E1V, 2.77.

The variants in the next data set derive from B2. Described as above. Conditions: c terminus: a fixed tail appended.
G10R: the protein stability index turned out to be 1.26. Take G10V: the protein stability index turned out to be 1. As for G10L, the protein stability index turned out to be 3.08. As for G10P, the protein stability index came out at 4.02.

Regarding G10E, the protein stability index stood at 2.8. On to G10T, for which the protein stability index stood at 2.62. On the same count and under the same terms, for G10F the value was 2.81; for G10N, 2.35. Take G10I: the protein stability index was 1.81. With G10D, the protein stability index was 1.47. Still for that read-out and setting: as for E2K, the figure is 2.2. As for E2M, the protein stability index stood at 2.93. Consider E2P, for which the protein stability index turned out to be 4.1. Same read-out and setting: as for E2N, the figure is 2.26; as for E2L, 3.35. The same measure, in the same setting: as for E2T, the figure is 2.21; as for E2Q, 3.74; as for E2F, 1.98. Turning to E2H, the protein stability index was 1.45. Still for that read-out and setting: for E2G the value was 2.35; for Q16D, 1.87; for Q16G, 2.49. As to Q16F, the protein stability index turned out to be 2.47. Same read-out and setting: for N7E the value was 2.1; for N7H, 4.19; for N7C, 2.1. Regarding N7Y, the protein stability index was 1.8.
